In assay [1] the target is T1, SARS-CoV-2 virus surface protein (RBD), wild type (SARS-CoV-2, UniProt P0DTC2 319-536). Kind of assay: BLI (Octet), full IgG against SARS-CoV-2 RBD.
Experimental: The binding affinity (equilibrium dissociation constant, KD) of each fully human antibody to SARS-CoV-2 RBD was evaluated by biolayer interference (BLI) assay using Octet.
The target in assay [2] is T1, SARS-CoV-2 virus surface protein (RBD), …. Kind of assay: BLI (Octet), full IgG against RBD WT.
For assay [3], the target named is SARS-CoV-2 spike D614 (pseudovirus) (SARS-CoV-2, UniProt P0DTC2 14-1273). Kind of assay: cell-based or functional assay.

B1: antibody No. 37 (fully human antibody, full IgG) (antibody, V domains shown)
VH: EVQLVQSGAEVKKPGESLKISCRGSGYSFTSHWIAWVRQMPGKGLEWMGIIYPGDSDSRYSPSFQGQVTISADKSISTAYLQWSSLKASDTAIYYCARGPNLYNWFDSWGQGTLVTVSS
VL: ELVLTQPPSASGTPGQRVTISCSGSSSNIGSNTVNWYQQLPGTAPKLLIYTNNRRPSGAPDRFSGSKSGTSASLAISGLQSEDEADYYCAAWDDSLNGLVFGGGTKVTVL
Molecule B1 returned a Kd in assay [1] of 0.057 nM.

B2: antibody No. 81 (fully human antibody, full IgG) (antibody, V domains shown)
VH: QVQLVQSGGGVVQPGRSLRLSCAASGFTFSSFAMHWVRQAPGKGLEWVAVISFDGSNKYYADSVKGQFTISRDNSKNTLYLQMNSLRAEDTAVYYCARGDYYGSGSYYNPSPFFDYWGQGTLVTVSS
VL: not shown
B2 registered a Kd in assay [1] of 0.0428 nM.

B3: antibody No. 61 (fully human antibody, full IgG) (antibody, V domains shown)
VH: EVQLLESGGALVQPGRSLRLSCAASGFTFDDYAMHWVRQGPGKGLEWVSGTTWNSGTIGYADSVKGRFIISRDNAENSLYLQMNSLRPEDTALYYCAKDIGSGDRPDAFHLWGQGTMVTVSS
VL: ELVLTQPPSVSVAPGKTARITCGGNNIGSKSVHWYQQKPGQAPVLVVYDDSDRPSGIPERFSGSNSGNTATLTISRVEAGDEADYYCQVWDSSSDRVVFGGGTKVTVL
As to B3, the Kd in assay [1] turned out to be 0.0226 nM.

B4: antibody No. 33 (fully human antibody, full IgG) (antibody, V domains shown)
VH: EVQLVESGGGVVQPGRSLRLSCAASGLTFSDYGMHWVRQAPGKGLEWVAAISYDGSNKYYADSVKGRFTISRDNSKNTVYLQMNSLRAEDTAVYYCVRDSGLYGSGWSTYQYYAMDVWGQGTTVTVSS
VL: ELVLTQSPSVSVAPGKTARITCGGNNIGSKSVHWYQQKPGQAPVLVVYDDSDRPSGIPERFSGSNSGNTATLTISRVEAGDEADYYCQVWDSSSDHVVFGGGTKVTVL
In turn, B4 came in with a Kd in assay [1] of 0.0431 nM.

B5: antibody No. 54 (fully human antibody, full IgG) (antibody, V domains shown)
VH: EVQLLESGGGLVQPGRSLRLSCAASGFNFDDYAMHWVRQAPGKGLEWVSGISWNSGTIGYADSVKGRFIISRDNAKNSLYLQMRSLKPEDTALYYCAKEELGPYSNRWYSSSDGMDVWGQGTTVTVSS
VL: ELVLTQPPSVSGAPGQRVTISCTGSSSNIGAGYDVHWYQQLPGTAPKLLIYGNSNRPSGVPDRFSGSKSGTSASLAITGLQAEDEADYYCQSYDSSLSGVVFGGGTKLTVL
In assay [1], B5 yielded a Kd of 0.0313 nM. Besides, in assay [2], binding was put at a Kd of 0.133 nM, the koff worked out at 0.000108 s⁻¹ and the kon is 815000 M⁻¹ s⁻¹.

B6: antibody No. 45 (fully human antibody, full IgG) (antibody, V domains shown)
VH: EVQLVQSGAEVKKPGSSVKVSCKASGGTFSSYDISWVRQAPGQGLEWMGGIIPILGIPNYAQKFQGRVTITADESTSTAYMELSSLRSEDTAVYYCARSRGYSGYGANWYFDLWGRGTLVTVSS
VL: ELVVTQPPSVSGAPGQRVTISCTGSSSNIGAGYDVHWYQQLPGTAPKLLIYGNSNRPSGVPDRFSGSKSGTSASLAITGLQAEDEAEYYCQSYDSSLSGPVFGGGTKLTVL
In turn, B6 gave a dissociation constant (Kd) in assay [1] of 0.0708 nM.

B7: antibody No. 34 (fully human antibody, full IgG) (antibody, V domains shown)
VH: QVQLVQSGAEVKKPGSSVKVSCKTSGGTFSNYPLTWVRQAPGQGLEWLGGIIPIIGATNYAQKFQGRVTITADESTSTAFMELSSLRSEDTAVYYCARGRGYSGYGAAYYFDYWGQGTLVTVSS
VL: ELELTQPPSVSGAPGQRVTISCTGSSSNIGAGYDVHWYQQLPGTAPKLLIYGNSNRPSGVPDRFSGSKSGTSASLAITGLQAEDEADYYCQSYDSSLSGWVFGGGTKVTVL
In assay [1], B7 gave a Kd of 0.185 nM.

B8: antibody No. 59 (fully human antibody, full IgG) (antibody, V domains shown)
VH: QVQLQESGPGLVKPSETLSLTCTVSGDSISGSSYYWGWIRQPPGKGLEWIGNIFYSGSTYYNPSLKSRVTISVDTPKNQFSLKLSSVTAADTAMYYCARGSRGYYDILTGYSTGGFDYWGQGTLVTVSS
VL: ELQMTQSPATLSVSPGEGATLSCRASQSVSSNLAWYQHKPGQAPRLLIYDASTRATGIPARFSGSGSGTEFTLTISSLQSEDFAVYYCQQYNNWPLTFGGGTKLEIK
On to B8, for which the Kd in assay [1] came out at 0.0496 nM.

B9: antibody No. 32 (fully human antibody, full IgG) (antibody, V domains shown)
VH: EVQLVQSGGGLIQPGGSLRLSCAASEFIVSSNYMTWVRQAPGKGLEWVSIIYPGGSTYYADSVKGRFTISRDNSKNTLYLRMNSLRAEDTAVYYCARDLPLTGTTLDYWGQGTLVTVSS
VL: not shown
In the case of B9, binding in assay [1] was put at a Kd of 0.147 nM. Besides, in assay [3], the “IC50, pseudovirus neutralization” value was found to be 4.34 ng/mL. Further, in assay [2], binding was characterised by a dissociation constant (Kd) of 0.305 nM, the koff came out at 0.000193 s⁻¹ and the kon turned out to be 633000 M⁻¹ s⁻¹.

B10: antibody No. 48 (fully human antibody, full IgG) (antibody, V domains shown)
VH: EVQLVQSGGGLIQPGGSLRLSCAASGFTVSSNYMSWVRQPPGKGLEWVSVIYPGGSTFFADSVQGRFTISRDNSKNTLYLQMNSLRAEDTAVYYCARSYDFLTDYTDAFDIWGQGTMVTVSS
VL: ELELTQPPSVSGAPGQRVTISCTGSSSNIGAGYDVHWYQQLPGTAPKLLIYGNSNRPSGVPDRFSGSKSGTSASLAITGLQAEDEADYYCQSYDSSLSGLWVFGGGTKLTVQ
In assay [1], B10 gave a Kd of 0.184 nM.

B11: antibody No. 53 (fully human antibody, full IgG) (antibody, V domains shown)
VH: EVQLVQSGGGLIQPGGSLRLSCAASGFTVSSNYMSWVRQPPGKGLEWVSVIYPGGSTFFADSVQGRFTISRDNSKNTLYLQMNSLRAEDTAVYYCARSYDFLTDYTDAFDIWGQGTMVTVSS
VL: not shown
For B11, in assay [1], binding was put at a Kd of 3.39 nM.

The record behind these values is patent US20250263468A1 (CELLTRION, published 2025).
